The supplement of paper PMC5998384

Assays:
[1] = system: HeLa Kyoto; assay: melting temperature (median over replicates), in situ; higher = more thermally stable
[2] = system: HeLa Kyoto; assay: solubility change mitosis vs G1/S (difference of NP-40 vs SDS log2 ratios) (log2 ratio difference); higher = more soluble in mitosis
[3] = system: HeLa Kyoto; assay: solubility in G1/S (NP-40 vs SDS abundance) (log2 ratio); higher = more soluble; details: cell cycle stage: G1/S
[4] = system: HeLa Kyoto; assay: thermal stability score vs G1/S (z-score of summed log2 fold changes over temperatures); higher = more thermally stable than in G1/S
[5] = cell cycle stage: early G1 (4.5 h after nocodazole release)
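Wherever melting temperature (median over replicates), in situ is given: HeLa Kyoto cells synchronized by double thymidine or nocodazole block, proteins quantified by TMT10plex mass spectrometry, three independent biological replicates.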
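Wherever solubility change mitosis vs G1/S (difference of NP-40 vs SDS log2 ratios) is given: synchronized HeLa Kyoto cells (double thymidine block for G1/S, nocodazole release for mitosis), protein amounts in NP-40 versus SDS lysates quantified by mass spectrometry, three biological replicates.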
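Wherever solubility in G1/S (NP-40 vs SDS abundance) is given: HeLa Kyoto cells arrested at G1/S by double thymidine block, proteins quantified by TMT10plex mass spectrometry in mild NP-40 versus SDS extracts, three biological replicates.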
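Wherever thermal stability score vs G1/S (z-score of summed log2 fold changes over temperatures) is given: synchronized HeLa Kyoto cells, proteins quantified by TMT10plex mass spectrometry, three biological replicates, mitosis taken 0.5 h after nocodazole release, G1/S directly after double thymidine block.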

Sequence	melting temperature ([1]; cell cycle stage: G1/S)	melting temperature ([1]; cell cycle stage: mitosis)	solubility change mitosis (log2) [2]	solubility in G1/S (log2) [3]	thermal stability score [4, 5]	thermal stability score ([4]; cell cycle stage: mitosis)
MSWESGAGPGLGSQGMDLVWSAWYGKCVKGKGSLPLSAHGIVVAWLSRAEWDQVTVYLFCDDHKLQRYALNRITVWRSRSGNELPLAVASTADLIRCKLLDVTGGLGTDELRLLYGMALVRFVNLISERKTKFAKVPLKCLAQEVNIPDWIVDLRHELTHKKMPHINDCRRGCYFVLDWLQKTYWCRQLENSLRETWELEEFREGIEEEDQEEDKNIVVDDITEQKPEPQDDGKSTESDVKADGDSKGSEEVDSHCKKALSHKELYERARELLVSYEEEQFTVLEKFRYLPKAIKAWNNPSPRVECVLAELKGVTCENREAVLDAFLDDGFLVPTFEQLAALQIEYEDGQTEVQRGEGTDPKSHKNVDLNDVLVPKPFSQFWQPLLRGLHSQNFTQALLERMLSELPALGISGIRPTYILRWTVELIVANTKTGRNARRFSAGQWEARRGWRLFNCSASLDWPRMVESCLGSPCWASPQLLRIIFKAMGQGLPDEEQEKLLRICSIYTQSGENSLVQEGSEASPIGKSPYTLDSLYWSVKPASSSFGSEAKAQQQEEQGSVNDVKEEEKEEKEVLPDQVEEEEENDDQEEEEEDEDDEDDEEEDRMEVGPFSTGQESPTAENARLLAQKRGALQGSAWQVSSEDVRWDTFPLGRMPGQTEDPAELMLENYDTMYLLDQPVLEQRLEPSTCKTDTLGLSCGVGSGNCSNSSSSNFEGLLWSQGQLHGLKTGLQLF [LAS1L]	49.7 °C	51 °C	0.658	-1.4	1.98	2.81
MSWMFKRDPVWKYLQTVQYGVHGNFPRLSYPTFFPRFEFQDVIPPDDFLTSDEEVDSVLFGSLRGHVVGLRYYTGVVNNNEMVALQRDPNNPYDKNAIKVNNVNGNQVGHLKKELAGALAYIMDNKLAQIEGVVPFGANNAFTMPLHMTFWGKEENRKAVSDQLKKHGFKLGPAPKTLGFNLESGWGSGRAGPSYSMPVHAAVQMTTEQLKTEFDKLFEDLKEDDKTHEMEPAEAIETPLLPHQKQALAWMVSRENSKELPPFWEQRNDLYYNTITNFSEKDRPENVHGGILADDMGLGKTLTAIAVILTNFHDGRPLPIERVKKNLLKKEYNVNDDSMKLGGNNTSEKADGLSKDASRCSEQPSISDIKEKSKFRMSELSSSRPKRRKTAVQYIESSDSEEIETSELPQKMKGKLKNVQSETKGRAKAGSSKVIEDVAFACALTSSVPTTKKKMLKKGACAVEGSKKTDVEERPRTTLIICPLSVLSNWIDQFGQHIKSDVHLNFYVYYGPDRIREPALLSKQDIVLTTYNILTHDYGTKGDSPLHSIRWLRVILDEGHAIRNPNAQQTKAVLDLESERRWVLTGTPIQNSLKDLWSLLSFLKLKPFIDREWWHRTIQRPVTMGDEGGLRRLQSLIKNITLRRTKTSKIKGKPVLELPERKVFIQHITLSDEERKIYQSVKNEGRATIGRYFNEGTVLAHYADVLGLLLRLRQICCHTYLLTNAVSSNGPSGNDTPEELRKKLIRKMKLILSSGSDEECAICLDSLTVPVITHCAHVFCKPCICQVIQNEQPHAKCPLCRNDIHEDNLLECPPEELARDSEKKSDMEWTSSSKINALMHALTDLRKKNPNIKSLVVSQFTTFLSLIEIPLKASGFVFTRLDGSMAQKKRVESIQCFQNTEAGSPTIMLLSLKAGGVGLNLSAASRVFLMDPAWNPAAEDQCFDRCHRLGQKQEVIITKFIVKDSVEENMLKIQNKKRELAAGAFGTKKPNADEMKQAKINEIRTLIDL [HLTF]	48.9 °C	50.2 °C	-0.0719	-0.124	2.36	4.68
MSWSPSLTTQTCGAWEMKERLGTGGFGNVIRWHNQETGEQIAIKQCRQELSPRNRERWCLEIQIMRRLTHPNVVAARDVPEGMQNLAPNDLPLLAMEYCQGGDLRKYLNQFENCCGLREGAILTLLSDIASALRYLHENRIIHRDLKPENIVLQQGEQRLIHKIIDLGYAKELDQGSLCTSFVGTLQYLAPELLEQQKYTVTVDYWSFGTLAFECITGFRPFLPNWQPVQWHSKVRQKSEVDIVVSEDLNGTVKFSSSLPYPNNLNSVLAERLEKWLQLMLMWHPRQRGTDPTYGPNGCFKALDDILNLKLVHILNMVTGTIHTYPVTEDESLQSLKARIQQDTGIPEEDQELLQEAGLALIPDKPATQCISDGKLNEGHTLDMDLVFLFDNSKITYETQISPRPQPESVSCILQEPKRNLAFFQLRKVWGQVWHSIQTLKEDCNRLQQGQRAAMMNLLRNNSCLSKMKNSMASMSQQLKAKLDFFKTSIQIDLEKYSEQTEFGITSDKLLLAWREMEQAVELCGRENEVKLLVERMMALQTDIVDLQRSPMGRKQGGTLDDLEEQARELYRRLREKPRDQRTEGDSQEMVRLLLQAIQSFEKKVRVIYTQLSKTVVCKQKALELLPKVEEVVSLMNEDEKTVVRLQEKRQKELWNLLKIACSKVRGPVSGSPDSMNASRLSQPGQLMSQPSTASNSLPEPAKKSEELVAEAHNLCTLLENAIQDTVREQDQSFTALDWSWLQTEEEEHSCLEQAS [IKBKB]	48.3 °C	49.2 °C	-0.171	0.0875	1.13	2.17
MSYTPGVGGDPAQLAQRISSNIQKITQCSVEIQRTLNQLGTPQDSPELRQQLQQKQQYTNQLAKETDKYIKEFGSLPTTPSEQRQRKIQKDRLVAEFTTSLTNFQKVQRQAAEREKEFVARVRASSRVSGSFPEDSSKERNLVSWESQTQPQVQVQDEEITEDDLRLIHERESSIRQLEADIMDINEIFKDLGMMIHEQGDVIDSIEANVENAEVHVQQANQQLSRAADYQRKSRKTLCIIILILVIGVAIISLIIWGLNH [STX7]	54.1 °C	55 °C	0.264	0.637	-1.45	-2.01
MTANRLAESLLALSQQEELADLPKDYLLSESEDEGDNDGERKHQKLLEAISSLDGKNRRKLAERSEASLKVSEFNVSSEGSGEKLVLADLLEPVKTSSSLATVKKQLSRVKSKKTVELPLNKEEIERIHREVAFNKTAQVLSKWDPVVLKNRQAEQLVFPLEKEEPAIAPIEHVLSGWKARTPLEQEIFNLLHKNKQPVTDPLLTPVEKASLRAMSLEEAKMRRAELQRARALQSYYEAKARREKKIKSKKYHKVVKKGKAKKALKEFEQLRKVNPAAALEELEKIEKARMMERMSLKHQNSGKWAKSKAIMAKYDLEARQAMQEQLSKNKELTQKLQVASESEEEEGGTEDVEELLVPDVVNEVQMNADGPNPWMLRSCTSDTKEAATQEDPEQLPELEAHGVSESEGEERPVAEEEILLREFEERRSLRKRSELSQDAEPAGSQETKDSGSQEVLSELRVLSQKLKENHQSRKQKASSEGTIPQVQREEPAPEEEEPLLLQRPERVQTLEELEELGKEECFQNKELPRPVLEGQQSERTPNNRPDAPKEKKKKEQMIDLQNLLTTQSPSVKSLAVPTIEELEDEEERNHRQMIKEAFAGDDVIRDFLKEKREAVEASKPKDVDLTLPGWGEWGGVGLKPSAKKRRRFLIKAPEGPPRKDKNLPNVIINEKRNIHAAAHQVRVLPYPFTHHWQFERTIQTPIGSTWNTQRAFQKLTTPKVVTKPGHIINPIKAEDVGYRSSSRSDLSVIQRNPKRITTRHKKQLKKCSVD [UTP14A]	53 °C	52.8 °C	0.895	-1.64	-4.25	-2.2
MTAPCPPPPPDPQFVLRGTQSPVHALHFCEGAQAQGRPLLFSGSQSGLVHIWSLQTRRAVTTLDGHGGQCVTWLQTLPQGRQLLSQGRDLKLCLWDLAEGRSAVVDSVCLESVGFCRSSILAGGQPRWTLAVPGRGSDEVQILEMPSKTSVCALKPKADAKLGMPMCLRLWQADCSSRPLLLAGYEDGSVVLWDVSEQKVCSRIACHEEPVMDLDFDSQKARGISGSAGKALAVWSLDWQQALQVRGTHELTNPGIAEVTIRPDRKILATAGWDHRIRVFHWRTMQPLAVLAFHSAAVQCVAFTADGLLAAGSKDQRISLWSLYPRA [GNB1L]	54.6 °C	54.2 °C	-0.205	0.0814	-0.681	-0.0471
MTATVENLTFQKDTLGNAVDKNTSRLELRSYSLAGRHGSTEPLVLAWSSQFRRLTWGCALDALHRSPCVAASQHGVTHLIRSSRTPHSTRCRKEDAQPGHHGNGAASVTAQARGQRSVLQVPLPVPRSCLFSESFVVSVSSQSRFLASVPGTGVQRSTAADMAASTAAGKQRIPKVAKVKNKAPAEVQITAEQLLREAKERELELLPPPPQQKITDEEELNDYKLRKRKTFEDNIRKNRTVISNWIKYAQWEESLKEIQRARSIYERALDVDYRNITLWLKYAEMEMKNRQVNHARNIWDRAITTLPRVNQFWYKYTYMEEMLGNVAGARQVFERWMEWQPEEQAWHSYINFELRYKEVDRARTIYERFVLVHPDVKNWIKYARFEEKHAYFAHARKVYERAVEFFGDEHMDEHLYVAFAKFEENQKEFERVRVIYKYALDRISKQDAQELFKNYTIFEKKFGDRRGIEDIIVSKRRFQYEEEVKANPHNYDAWFDYLRLVESDAEAEAVREVYERAIANVPPIQEKRHWKRYIYLWINYALYEELEAKDPERTRQVYQASLELIPHKKFTFAKMWILYAQFEIRQKNLSLARRALGTSIGKCPKNKLFKVYIELELQLREFDRCRKLYEKFLEFGPENCTSWIKFAELETILGDIDRARAIYELAISQPRLDMPEVLWKSYIDFEIEQEETERTRNLYRRLLQRTQHVKVWISFAQFELSSGKEGSLTKCRQIYEEANKTMRNCEEKEERLMLLESWRSFEEEFGTASDKERVDKLMPEKVKKRRKVQTDDGSDAGWEEYFDYIFPEDAANQPNLKLLAMAKLWKKQQQEKEDAEHHPDEDVDESES [CRNKL1]	47.4 °C	48 °C	0.252	-0.64	1.73	2.31
MTCWLRGVTATFGRPAEWPGYLSHLCGRSAAMDLGPMRKSYRGDREAFEETHLTSLDPVKQFAAWFEEAVQCPDIGEANAMCLATCTRDGKPSARMLLLKGFGKDGFRFFTNFESRKGKELDSNPFASLVFYWEPLNRQVRVEGPVKKLPEEEAECYFHSRPKSSQIGAVVSHQSSVIPDREYLRKKNEELEQLYQDQEVPKPKSWGGYVLYPQVMEFWQGQTNRLHDRIVFRRGLPTGDSPLGPMTHRGEEDWLYERLAP [PNPO]	53.5 °C	54.3 °C	-0.0358	0.682	-1.68	-1.82
MTDAAVSFAKDFLAGGVAAAISKTAVAPIERVKLLLQVQHASKQITADKQYKGIIDCVVRIPKEQGVLSFWRGNLANVIRYFPTQALNFAFKDKYKQIFLGGVDKRTQFWLYFAGNLASGGAAGATSLCFVYPLDFARTRLAADVGKAGAEREFRGLGDCLVKIYKSDGIKGLYQGFNVSVQGIIIYRAAYFGIYDTAKGMLPDPKNTHIVISWMIAQTVTAVAGLTSYPFDTVRRRMMMQSGRKGTDIMYTGTLDCWRKIARDEGGKAFFKGAWSNVLRGMGGAFVLVLYDEIKKYT [SLC25A5]	56.9 °C	55.9 °C	-0.12	-0.308	-2.25	-3.52
MTEADVNPKAYPLADAHLTKKLLDLVQQSCNYKQLRKGANEATKTLNRGISEFIVMAADAEPLEIILHLPLLCEDKNVPYVFVRSKQALGRACGVSRPVIACSVTIKEGSQLKQQIQSIQQSIERLLV [SNU13]	54.6 °C	53 °C	1.04	-0.625	-3.84	-7.97
